Legend:
FXR-DBD;RXR-DBD [1] = target: T1, FXR-DBD;RXR-DBD (human;human, UniProt Q96RI1-1;P19793 117-217;130-212, |); test: X-ray crystallography
FXR-DBD = target: T2, FXR-DBD (human, UniProt Q96RI1-1 117-217); test: fluorescence polarization
T2 sequence: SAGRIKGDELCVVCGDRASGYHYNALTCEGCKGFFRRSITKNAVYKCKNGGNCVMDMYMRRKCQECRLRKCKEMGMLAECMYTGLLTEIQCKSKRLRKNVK

FXR-DBD;RXR-DBD [2] = target: T1, FXR-DBD;RXR-DBD; test: fluorescence polarization

T1 sequence (P19793 130-212, one chain of several): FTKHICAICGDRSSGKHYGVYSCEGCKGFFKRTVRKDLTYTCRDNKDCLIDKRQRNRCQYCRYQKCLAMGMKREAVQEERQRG

B1: IR1 (crystal) (dsDNA)
DNA 1: CCGAGGTCAATGACCTCG
DNA 2: CCGAGGTCATTGACCTCG
- binding result (FXR-DBD;RXR-DBD [1]): binds

B2: IR1 (FPA) (dsDNA)
DNA 1: CCGAGGTCAATGACCTCG
DNA 2: CGAGGTCATTGACCTCGG
- Kd (FXR-DBD): 95 nM
- Kd (FXR-DBD;RXR-DBD [2]): ~54 nM
